Experimental data: the nanobody polyreactivity screen of Harvey et al. (2022)

Assay: yeast display, Sf9 membrane polyspecificity reagent, FACS + sequencing; frameworks hold sequencing errors
Outline: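 In a synthetic yeast display library (Saccharomyces cerevisiae BJ5465), nanobody expression was induced with galactose for 36–48 hours. FACS gates were set low and high (top ~1%) using anti-HA fluorescence for expression and streptavidin fluorescence for binding of the Sf9 membrane reagent. Each polyreactivity label is drawn from the gate of origin.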

Sequence | polyreactivity (PSR sort gate)
QVQIVESGGGLVQAGGSLRLSCAASGRTLGFYAMGWYRQAPGKEREFVAAISSSVGRTYYADSVKGRFTISRDNAKNTVYLHMNRLKPEDTAVYYCAAKVSAWKKKSEMNYWGQGTQVTVSS | high polyreactivity
QVQLVESGGGLVQAGGSLRLSCAASGSIFYINAMGCYRQAPGKEREMVAAITSDGSTYYADSVKGRFTISRDNAKNTVYLQMNSLNPEDTAVYYCAADLTSDQYMYYWYWFYSWGQGTQVPVSS | low polyreactivity
QDQLVESGGGLVQAGGSLRLSCAASGFIFYYYAMGWYRPAPGKERELVAAISGSGGSTYYADSVKGRFTISRDNAKNTVYLQMNSLKPEDTAVYYCNARRPGYYVYYFAYDYWGQGTQVTVSS | high polyreactivity
QVQLVESGGGLVQAGGSLRLSCAASGGIFTYYAMGGYRQAPGKERELVAAITWSGGSTYYADSVKGRFTISRDNAKNTVYLQMNSLKPEETAVYYCNAVVLHVTTDNSTFTTDDYWGHGTQVTVSS | low polyreactivity
QVQLVESGGGLVQAGGSLRLSCAASGSTFLGNAMGWYRQAPGKEREFVAAITVSGGSTYYADSVKGRFTISRDNAKNTVYLQMNSLKPEDTAVYYCAARYLRYSSKTIQNEDYWGQVTQVTVSS | high polyreactivity
QVQLVESGGGLVQAGGSLRLSCAASGRTFVRYAMGWYRQAPGKERELVAAITRRGGSTYYADSVKGRFTISRDNAKNTVYLQMNSLKPEDTAVYYCNKAVGVTGFDYWGQGTQVTVSS | high polyreactivity
QFQLVESGGGLVQAGGSLRLSCAASGLIFVGNPMGWYRQAPGKERELVAAISSRGGRTYYADSVKGRFTISRDNAKNTVYLQMNSLKPEDTAVYYCIAANSQWGFEYWGQGTQVTVSS | high polyreactivity
QVQLVESGGGLVQAGGSLRLSCAASGSIFWGYAMGWYRQAPGKERELVASIGGDSTNYADSVKGRFTISRDNAKNTVYIQMNSLKQEYTPVYYCAARYRTDYYPEYEYWGQGTEVTVSS | low polyreactivity
QVQLVESGGGLVQAGGSLRLSCSASGNIIRKYAMGWYRQAPGKEREFVAAISSSGGRTYYADSVKGRFTISRDNAKNTVYLQMNSLKPEDTAVYYCAKDPYGRLQPRPRFGYWGQGTQVTVSS | high polyreactivity
QVQLVESGGGLVQAGGSLRLSCAASGIILGRYAMGWYRQAPGKERELVAAITASGGRTYYADSVKWRFTISRDNAKNTVYLQMNSLKPEDTAVYYCNTVYWGYKSHYDYWGQGTQVTVSS | high polyreactivity
QVQLVESGGGLVQAGGSLRLSCAASGRTFYRYAMGWYRQAPGKERELVAAISSGGSTNYADSVKGRFTISRDNAKNTVYLQMNSLKPEDTAVYYCAAETRLHRQDYDYWGQGTQVTVSS | low polyreactivity
QVQLVETWGGLVQAGGTLRLSCAASGSIFSPYAMGWYRQAPGKERELVAAISRNGGTTYYADSVKGRFTISRDNAKNTVYLQMNSLKPEDTAVYYCARLYYTQKDSKTGYGYWGQGTQVTVSS | high polyreactivity
QVQLVESGGGLVQAGGSLRLICAATGITFEGYAMGWYRQAPGKERELVAAIRSSGTSTYYADSVKGRFTISRDNAKNTVYLQMNSLKPEDTAVYYCNRARSSSRYDYWGQGTQVTVSS | low polyreactivity
QVQLVESGGGLVQAGGSLRLSCAASGFTFLGNVMGWYRQAPGKERELVAAISITGSTSYADSVKGRFTISRDNAKNTVYLQMNSLKPEDTAVYYCAADGGQVDDSATRLYYWGQGTQVTVSS | high polyreactivity
QVQLVESVGGLVQAGGSLRLSCAASGGIFDTYVMGWYRQAPGKERELVAAISSSGSTTYADSVKGRFTISRDNAKNTVYLQMNSLKPEDTAVYYCNADYSTIWRYDYWGQGTQVTVSS | low polyreactivity
QFQLVESGGGLVQAGGSLRLSCAASGRTFYYYVMGWYRQAPGKERELVAAITIRGGSTYYADSVKGRFTISRDNAKNTVYLQMNSLKPEDTAVYYCNARGGSSTYGNYYWGQGTQVTVSS | low polyreactivity
QVQLVESGGGLVQAGGSLRLSCAASGSTFYYNAMRWYRQAPGKERELVAAITGSGDSTYYADSVKGRFTISRDNAKNTVYLQMNSLKPEDTAVYYCAADTYSTYWGQGTQVTVSS | low polyreactivity
QVQLVESGGGLVQAGGSLRLSCAASGRIFRAYAMGWYRQAPGKERELVAAISSRGGSTYYADSVKGRFTISRDNAKNTVYLQMNSLKPEDTAVYYCNVDTPFREGSYDYWGQGTQVSVSS | high polyreactivity
QVQLVESGGGLVQSGGSLRLSCAASGFIFEAYAMGWYRQAPGKEMELVAAISSGGSTKYADSVKGRFTISRDNAKNSVYLQMNSLKPEDTAVYYCAKSSWTYGAYNYLGQGTQVTVSS | high polyreactivity
QVQLVESGGGLVQAGGSLRLSCAASGSIFSRYAMGWYRQAPGKERELVAGISRGSSTYYADSVKGRFTISRDNAKNTVYLQMNSLKPEDTAVYYCARSGGSGGYYYWGQGTQVTVSS | low polyreactivity
QVQLVESGGGLVQAGGSLRLSCAASGRIFKRNAKGWYRQAPGKEWELVATISGSGGSTYYADSVKGRFTISRDNAKNTVYLQMNSLKPEDTAVYYCAAVPGYPRDSLYNYWGQGSQVTVSS | high polyreactivity

Sequence | polyreactivity (PSR sort gate)
QVQLVESGGGLVQAGGSLRLSCAASGFTFWTYAMGWYRQAPGKERELVAAIDSGGSTYYADSVKGRFTISRDNAKNTVYLQMNSLKPEDTAVYYCAKDVLAPYSRHDYWGQGTQVTVSS | low polyreactivity
QVQLVESGGGLVQAGGSLRLSCAASGRTFYGYAMGWYRQAPAKERELVAAITWSVGRTYYADSVKGRFTISRDNAKNTVYLQMNSLKPEDTAVYYCAAQRAGLFNYWGQGTQVTVSS | low polyreactivity
QVQLVESGGGLVQAGGSLRLSCAASGRTFAVYAMGWYRQAPGKERELVAAISYSGDSTYYADSVKGRFTISRDNAKYTVYLQMNSLKPEDTAVYYCAADFLVGLTAVAYEYWGQGTQVTVSS | low polyreactivity
QVQLVESGGGLVQAGGSLRLSCAASGLIFQSYAMGWYRQAPGKERELVAVITWSGTSTYADSVKGRFTISRDNAKNTVYLQMNSLKPEDTAVYYCAASKYGSFTNFGYWGQGTQVTVSS | low polyreactivity
QVQLVESWGGLVQAGGSLRLSCAASGRTNGYAMGWYRQAPGKERELVARITWRGGSTSYADSVKGRFTISRDNAKNTVYLQMNSLKREDTAVYYCAAGFYFPVYTYVRKRYYYWGQGTQVTVSS | high polyreactivity
QVQLVESGGGLVQAGGSLRLSCAASGFIFAYNAMGWYRQAPGKEREFVAAISRSGGSTRYADSVKGRFTISRDNAKNTVYLQMNSLKPEDTAVYYCAARSGSWGQGTQVTVSS | high polyreactivity
QVQLVESGGGLVQAGGSLRLSCAASGFIFGLYDMGWYRQAPGKERELVARISWGGGTYYADSVKGRFTISRDNAKNTVYLQMNSLKPEDTAVYYCNTRTRGYYYNSYYWTKYGYWGQGTQVTVSS | high polyreactivity
QVQLVESGGGLVQAGGSLRLSCAASGTFARYAMGWYRQAPGKERELVAAISRRGGSTYYADSVKGRFTISRDNAKNTVYLQMNSLKPEDTAVYYCAADNTQVRPKYDYWGQGTQVTVSS | high polyreactivity
QVQLVESGGGIVQAGGSLRLSCAASGRTFTVYAMGWYRQARGTARELVAAINYSVGSTYYADSVKGRFTISRDNAKNTVYLQMNSLNPEDTAVYYCAADLYHFSYSNSYIRYDYWGQGTQVTVSS | low polyreactivity
QVQLVESGGGLVQAGGSLRLSCAASGSIFGLYTMGWYRQAPGKERELVAAIDSGDSTNYADSVKGRFTISRDNEKNTVYLQMNSLKQEDTAVYYCNALGEYPYYSSFWYESWGQGTQVTVSS | low polyreactivity
QVQLVESGGGLVQAGGSLRLSCAASGIIIRRYAMGWSRQAPGKERELVAAISWSGGSTYYADSVKGRFTISRDNAKNTVDLQMNSLKPEDTAVYYCAAAAYTRDEYDYWGQGTQVTVSS | high polyreactivity
QVQLVESGGGLVQAGGSLRLSCAASGSIFVWNARGWYRQAPVKERELVAAISYTDGSTYYADFVKGRFTISRDNAKNTVYLQMNSLKPEDTAVYFCAAAITRSYTGSEYDYWGQGTEVTVSS | low polyreactivity
QVQLVESGGGLVQAGGSLRLSCAASGSTFPSYAMGWYRQAPGKERELVAAINSGGGTNYADSVKGRFTISRDNAKNTVYLQMNSLKPEDTAVYYCNTDILSIYAEPYYFTDVDYWGQGTQVTVSS | low polyreactivity
QVQLVESGGGLDQAGGSLRLSCAASGSISLNAMGWYRQGPGKEREFVAVITWRVGDTYYADSVKGRITISRDNAKNTVYLQLNSRKPEDSAVYYCAADDLYYQGIYRGSEFDYWGQGTQVTVSS | low polyreactivity
QVQLVESGGGLVQAGGSLRLSCAASGSTFRWYAMGWYRQAPGKERELVAAITSGGSTNYADSVKGRFTISRDNAKNTVYLQMNSLKPEDTAVYYCNKVYPVVRYEPQYDYWGQGTQVTVSS | low polyreactivity
QVQLVESGGGLVQAGGSLRLTCAASGNTFVSNAMGWYRQAPGKERELVAAIDSGGSTNYADSVKGRFTISRDNAKNTVYLQMNSLKPEDTAVYYCNRTSVYYYYWGQGTQVTVSS | low polyreactivity
QVQLVESGGGLVQAGGSLRLSCAASGNTFGDNAMGWYRQAPGKERELVAAISTGGNTYYADSVKGRFTISRDNAKNTVYLQMNSLKPEDTAVYYCNAKWIPDTLFGIHETEGDYWGQGTQVTVSS | low polyreactivity
QVQLVESGGGLVQAGGSLRLSCAASGRTFNTYAMGWYRQAPGKERELVAAISRTGASTYYADSVKGRFTISRDNAKNTVYLQMNSLKPEDTAVYYCAADANSGDGYYWGQGTQVTVSS | high polyreactivity
QLQLVESGGGLVQAGGSLRLSCAASRSTFKYYAMGWYRQAHGKERELVAAISRRGGSTYYADSVKGRFTISRDNAKNTVYLQMNSLKPEDTAVYYCAADIIRPVTVDYWGQGTQVTVSS | high polyreactivity
QVQLVESGGGLFQAGGSLRLSCAASGNIFVDYDMGWYRQAPGKERELDATITGTGDSTTYADSVKGRFTISRDIAKNTVYLQMNSLKPEDTAVYYCNTDLRLVYRTKGFISWGYDYWGQGTQVTVSS | low polyreactivity
